{"source": "patent US7118877", "molecules": {"B1": {"name": "Caspase 9 (protein)", "chain": "MDEADRRLLRRCRLRLVEELQVDQLWDALLSRELFRPHMIEDIQRAGSGSRRDQARQLIIDLETRGSQALPLFISCLEDTGQDMLASFLRTNRQAAKLSKPTLENLTPVVLRPEIRKPEVLRPETPRPVDIGSGGFGDVGALESLRGNADLAYILSMEPCGHCLIINNVNFCRESGLRTRTGSNIDCEKLRRRFSSLHFMVEVKGDLTAKKMVLALLELAQQDHGALDCCVVVILSHGCQASHLQFPGAVYGTDGCPVSVEKIVNIFNGTSCPSLGGKPKLFFIQACGGEQKDHGFEVASTSPEDESPGSNPEPDATPFQEGLRTFDQLDAISSLPTPSDIFVSYSTFPGFVSWRDPKSGSWYVETLDDIFEQWAHSEDLQSLLLRVANAVSVKGIYKQMPGCFNFLRKKLFFKTS"}}, "key": {"[1]": {"tested_on": "T1, Ac-IETD-Afc", "T1 sequence": "IETD"}, "[2]": {"tested_on": "T2, Ac-LEHD-Afc", "T2 sequence": "LEHD"}, "[3]": {"tested_on": "T3, Ac-VEID-Afc", "T3 sequence": "VEID"}, "[4]": {"tested_on": "T4, Ac-WEHD-Afc", "T4 sequence": "WEHD"}, "[5]": {"tested_on": "T5, Ac-DEVD-Afc", "T5 sequence": "DEVD"}, "[6]": {"target": "T6, Ac-LEHD-Afc", "T6 chain": "LEHD"}}, "note": "Where two headings read alike, the source gives them in different places."}
{"molecule": "Caspase 10", "values": [{"measurement": "Optimum substrate at pH 7.2 (rate of AFC release, fluorogenic cleavage assay)", "setting": "[1]", "value": "Ac-IETD-Afc (SEQ ID NO:2),"}, {"measurement": "Optimum substrate at pH 7.2 (rate of AFC release, fluorogenic cleavage assay)", "setting": "[2]", "value": "Ac-LEHD-Afc (SEQ ID NO:5)"}]}
{"molecule": "Caspase 1", "values": [{"measurement": "Optimum substrate at pH 7.2 (rate of AFC release, fluorogenic cleavage assay)", "setting": "[3]", "value": "Ac-VEID-Afc (SEQ ID NO:6)"}, {"measurement": "Optimum substrate at pH 7.2 (rate of AFC release, fluorogenic cleavage assay)", "setting": "[4]", "value": "Ac-WEHD-Afc (SEQ ID NO:4),"}, {"measurement": "Optimum substrate at pH 7.2 (rate of AFC release, fluorogenic cleavage assay)", "setting": "[2]", "value": "Ac-LEHD-Afc (SEQ ID NO:5),"}]}
{"molecule": "Caspase 8", "values": [{"measurement": "Optimum substrate at pH 7.2 (rate of AFC release, fluorogenic cleavage assay)", "setting": "[2]", "value": "Ac-LEHD-Afc (SEQ ID NO:5"}]}
{"molecule": "Caspase 6", "values": [{"measurement": "Optimum substrate at pH 7.2 (rate of AFC release, fluorogenic cleavage assay)", "setting": "[1]", "value": "Ac-IETD-Afc (SEQ ID NO:2)"}]}
{"molecule": "Caspase 3", "values": [{"measurement": "Optimum substrate at pH 7.2 (rate of AFC release, fluorogenic cleavage assay)", "setting": "[5]", "value": "Ac-DEVD-Afc (SEQ ID NO:1)"}]}
{"molecule": "Caspase 7", "values": [{"measurement": "Optimum substrate at pH 7.2 (rate of AFC release, fluorogenic cleavage assay)", "setting": "[5]", "value": "Ac-DEVD-Afc (SEQ ID NO:1)"}]}
{"molecule": "Caspase 2", "values": [{"measurement": "Optimum substrate at pH 7.2 (rate of AFC release, fluorogenic cleavage assay)", "setting": "[2]", "value": "Ac-LEHD-Afc (SEQ ID NO:5)"}]}
{"molecule": "B1", "values": [{"measurement": "Optimum substrate at pH 7.2 (rate of AFC release, fluorogenic cleavage assay)", "setting": "[6]", "value": "Ac-LEHD-Afc (SEQ ID NO:5"}]}
